The source of these data is the supplement of paper PMC12764529.

± gives the half width of the 95% confidence interval.

Data set [1] in a line: folding stability dG unfold (combined trypsin and chymotrypsin); higher = more stable. In outline:
(§1)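 Only designs with AlphaFold2 dimer inter-PAE above 15 were retained; each was a mini-protein under 80 residues with no cysteine, in a PA-tagged cDNA display construct. After digestion with trypsin and chymotrypsin and sequencing, K50 was inferred by Bayesian fitting of counts, and unfolding free energy was derived per protease or combined against a sequence-predicted unfolded-state K50 and a shared folded-state K50.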

The nature of data set [2]: folding stability dG unfold from chymotrypsin proteolysis; higher = more stable. In outline:
as §1

Data set [3] is described as follows: folding stability dG unfold from trypsin proteolysis; higher = more stable. In outline: as §1

Regarding “SAGGEGEPFRITPDEIQRIFNELAQDHGFNVSISEIQVPGDEVRITISIQHDGGTQSVRLPFRIEKDDSAGG [r13_652_TrROS]”, the “folding stability dG unfold” value in data set [1] is 0.37 ± 0.21 kcal/mol; in data set [2], 0.191 ± 0.21 kcal/mol; in data set [3] it was 0.427 ± 0.2 kcal/mol.
The like results for “SAGGEIEIVVETPEDLEKAKELAEELAKALEEAGLEIEEVKVELVEETVVNEDGEEKKRYVLKITFPSAGGS [r16_591_TrROS_Hall]” were, in that order, 2.97 ± 0.14 kcal/mol, 3.24 ± 0.086 kcal/mol and 2.46 ± 0.1 kcal/mol.
On to “SAGGEIKPGQTVRIRITVYNLETGEEKTIEVEVPAGKTLEEVLAELFDNLSEEERKNLVVRIEIEPVSAGGS [r16_321_TrROS_Hall]”, for which the entries for the “folding stability dG unfold” value in data set [1], in data set [2] and in data set [3] were 4.9 ± 0.26 kcal/mol, 5.02 ± 0.12 kcal/mol and 4.38 ± 0.15 kcal/mol, respectively.
As for “SAGGEISPEDIKELEIYPIPPEDAQKNGYIMIEIKGPGGKPIAQIMIPVRVPKVKDKDGKPMDLEDMNSAGG [r13_864_TrROS]”, the “folding stability dG unfold” value came out at 1.32 ± 0.22 kcal/mol in data set [1], 1.6 ± 0.07 kcal/mol in data set [2] and 1.13 ± 0.044 kcal/mol in data set [3].
On to “SAGGEKEYVEVTLEIEIEIELEPGESAEEIARKLAEELGAEITEVRVERLPDGTVKITVTVRVKLPPSAGGS [r8_292_TrROS_Hall]”, for which the “folding stability dG unfold” value amounted to 2.98 ± 0.35 kcal/mol in data set [1], 2.58 ± 0.2 kcal/mol in data set [2] and 3.3 ± 0.29 kcal/mol in data set [3].
The corresponding values for “SAGGEKIEELLKELLEKLEIKPGEKVEIEIEFELEDGYRIKLKITVTYNEETGEVEIKVEIVEIEKVSAGGS [r16_634_TrROS_Hall]” are 4.22 ± 0.19 kcal/mol, 4.39 ± 0.17 kcal/mol and 2.96 ± 0.12 kcal/mol.
Regarding “SAGGEKKPVKVKIEVESFKLPNVLVLKAKVYLPATGKWYEAIVIEGPTKTLVVIKFPDGSSLVLELNSAGGS [r16_657_TrMRF]”, the “folding stability dG unfold” value in data set [1] is 3.9 ± 0.31 kcal/mol; in data set [2] it was 4.12 ± 0.12 kcal/mol; in data set [3] it was 2.97 ± 0.17 kcal/mol.
For the sequence “SAGGEKPKEVEIEEVVVKNEETGEEVRFFRIRDKETDEWYVLAVVRNKDGEEKVVKMSAEEAKKLLESAGGS [r8_421_TrROS_Hall]”, the “folding stability dG unfold” value in data set [1] was 3.59 ± 0.14 kcal/mol; in data set [2] it was 3.7 ± 0.044 kcal/mol; in data set [3] it was 3.13 ± 0.065 kcal/mol.
The corresponding values for “SAGGEKVTVTVTTETKTVTVTVYKAPAPKFKVTEITLELDENGNLRLTIKLENGETLEFDSLEDLLAALSAG [r5_618_TrROS_Hall]” are 2.73 ± 0.3 kcal/mol, 3.17 ± 0.15 kcal/mol and 2.77 ± 0.079 kcal/mol.
For the sequence “SAGGELKLLFNFPSKEEAEEFAEALKKAYPNFEVEVEYDPETGLFYLTLKPKEIPPLSPEELEKLLESAGGS [r16_674_TrMRF]”, the “folding stability dG unfold” value in data set [1] was 4.7 ± 0.071 kcal/mol; in data set [2] it was 4.87 ± 0.056 kcal/mol; in data set [3], 2.96 ± 0.085 kcal/mol.
On to “SAGGELVLLIRVTPERIEIRLLPKEALEGLELEAPPGERLLLVELEPPPPEEEEREERRREEREELEESAGG [r13_74_TrROS_Hall]”, for which the “folding stability dG unfold” value was found to be 1.32 ± 0.41 kcal/mol in data set [1], 1.4 ± 0.23 kcal/mol in data set [2] and 1.34 ± 0.13 kcal/mol in data set [3].
With “SAGGEMVTIRVRAPDPEKLIEALREEFPEGLTIRPFPRPTPDGYEVLIVVPAERPEELLEAVERAIGSAGGS [r16_43_TrMRF]”, the “folding stability dG unfold” value in data set [1] is 2.13 ± 0.068 kcal/mol; in data set [2] it was 2.17 ± 0.022 kcal/mol; in data set [3] it was 2.01 ± 0.075 kcal/mol.
Take “SAGGEPMKIRIEIYRMKRKKDPKDGKEKWDMRPVPEYEIPFPPGETLLDILDKLPLPPGYMIKRISIESAGG [r13_716_TrROS]”: the “folding stability dG unfold” value in data set [1] amounted to 2.13 ± 0.32 kcal/mol; in data set [2] it was 2.07 ± 0.12 kcal/mol; in data set [3] it was 2.28 ± 0.097 kcal/mol.
In the case of “SAGGEPPPVRVSFSVEEVTVGAGPVFVRRVVTYDPAEGRVSEFVEVFERGRGGLLGRSSRTVPAEELASAGG [r13_772_TrMRF]”, the figures for the “folding stability dG unfold” value in data set [1], in data set [2] and in data set [3] were 4.44 ± 0.16 kcal/mol, 4.7 ± 0.13 kcal/mol and 4.08 ± 0.15 kcal/mol, respectively.
For “SAGGEPVKFIPPGWKITLTTPDGRPLTFTLPANATPEDFKSLELPGDHELEFVEFLPDGTILVRSPKSAGGS [r16_103_TrMRF]”, the “folding stability dG unfold” value in data set [1] amounted to 1.12 ± 0.11 kcal/mol; in data set [2], 1.2 ± 0.18 kcal/mol; in data set [3] it was 0.948 ± 0.088 kcal/mol.
The like results for “SAGGERLTLEELEELLKNLPPGVEEVTITLKLEVEVRTEVRLNEDGSLETRTETRVTTELTLTLPKESAGGS [r16_708_TrROS_Hall]” were, in that order, 3.46 ± 0.25 kcal/mol, 4.01 ± 0.4 kcal/mol and 2.5 ± 0.34 kcal/mol.
Take “SAGGETKTLTIKFYDPKTGKLVAEVTITYTPEKVTVTIRFADGTTETVEMTAEELLAKLPPGAVIVPSAGGS [r16_543_TrROS_Hall]”: the “folding stability dG unfold” value in data set [1] turned out to be 4.31 ± 0.16 kcal/mol; in data set [2] it was 4.46 ± 0.22 kcal/mol; in data set [3], 3.79 ± 0.11 kcal/mol.
As to “SAGGETLTVTVLIKNKDEKNKYYKVEVKVTVEKNENGEKTLTIEMKITDKNGNKKTIKVNLKDIKIIDSAGG [r13_787_TrROS_Hall]”, the “folding stability dG unfold” value in data set [1] came to 3.69 ± 0.32 kcal/mol; in data set [2], 4.33 ± 0.24 kcal/mol; in data set [3] it was 2.52 ± 0.26 kcal/mol.
The like results for “SAGGETRTFMFPFKPGMPLEEIIEELIDVLQKKGKDYPIEFKPIEPDPNGYMLFMATVTNNKITIFWSAGGS [r8_7_TrROS]” were, in that order, 2.83 ± 0.17 kcal/mol, 3.03 ± 0.083 kcal/mol and 2.22 ± 0.05 kcal/mol.
The like results for “SAGGETVTLTLKVETLEELEALAKKLAEETGEEVTIEVIGPDGKKYTFKTPEELKNIPGATVKITIKKSAGG [r13_620_TrROS_Hall]” were, in that order, 2.87 ± 0.15 kcal/mol, 2.96 ± 0.041 kcal/mol and 2.19 ± 0.13 kcal/mol.
The like results for “SAGGEVELKIKIEIRVELNEDGELKVEIKIEIELRPKPEPELTEEERLAEELRKKYPGLSKEELEALLSAGG [r13_136_TrROS_Hall]” were, in that order, 2.32 ± 0.27 kcal/mol, 1.63 ± 0.13 kcal/mol and 2.87 ± 0.32 kcal/mol.
For “SAGGEVKPGDKVKVRLRLRVRLEDGEEVEVELEFVEVEVVPLSEEEKEKLEELKKKKPEVDPKNKELLSAGG [r13_330_TrROS_Hall]”, the “folding stability dG unfold” value in data set [1] came to 1.81 ± 0.3 kcal/mol; in data set [2] it was 2.24 ± 0.11 kcal/mol; in data set [3], 1.61 ± 0.13 kcal/mol.
With “SAGGEVKVVKAEVTTLPDGRKLVRLLLEVGGKFYPVLIDVHPDGVRITFPDGKTATIKLEDLKNLTWSAGGS [r16_593_TrMRF]”, the “folding stability dG unfold” value in data set [1] worked out at 2.15 ± 0.12 kcal/mol; in data set [2], 1.73 ± 0.14 kcal/mol; in data set [3], 2.64 ± 0.094 kcal/mol.
As to “SAGGEVLIDTGPSPEEALYRAYEKGGEVPVIVLEPGSRVLHIFNVRFNPIPKKVEILDEYEIPILPELSAGG [r13_309_TrMRF]”, the “folding stability dG unfold” value stood at 1.38 ± 0.11 kcal/mol in data set [1], 1.46 ± 0.087 kcal/mol in data set [2] and 1.18 ± 0.025 kcal/mol in data set [3].
On to “SAGGFEFEFTNPDGKKIKVEIERHPEEGYIMLKIQYGGKPVETFPPGDEFEIPPDGIDAVIMFRLPPESAGG [r13_958_TrROS]”, for which the “folding stability dG unfold” value is 2.91 ± 0.22 kcal/mol in data set [1], 3.22 ± 0.12 kcal/mol in data set [2] and 2.88 ± 0.15 kcal/mol in data set [3].
As to “SAGGFKEIKKKLGVKKEDKVILDLEVNFGKKPKFFKVEFEVDKLEEIVKELGIPKENLKIVKAVVIKESAGG [r13_681_TrMRF]”, the “folding stability dG unfold” value in data set [1] was 0.706 ± 0.13 kcal/mol; in data set [2], 1.16 ± 0.082 kcal/mol; in data set [3] it was -0.523 ± 0.31 kcal/mol.
